Blank lines part the entries; values can stand above or below the binder they belong to.
Tests used:
[1] = target: T1, human TfR overexpressed on CHO cells (human, UniProt P02786 1-760); assay: flow cytometry on CHO cells overexpressing human TfR (CHO-hTfR), VHH detected with anti-FLAG-iFluor647; median Flag-i647 intensity in total GFP cells
T1 construct: construct is TfR followed by an HA tag and IRES-GFP; also called hTfR; human transferrin receptor
Experimental: Output libraries were screened with flow cytometry to find binders to human TfR overexpressing cells (FIG. 1A). […] Binding kinetics to recombinant human and cynomolgus TfR were further characterized with Surface Plasmon Resonance (SPR).
Periplasmic extracts diluted 1:10 in PBS 2% FBS, or a dilution range of different VHH or bispecific antibody concentrations prepared in PBS 2% FBS, were incubated with 0.1 million CHO cells overexpressing either the human, cynomolgus or mouse TfR for 30 min at 4° C. As control for background binding, periplasmic extracts, VHHs or bispecific antibodies were also incubated with 0.1 million CHO cells overexpressing GFP. Binding of VHHs was next resolved by a second step 30 min incubation at 4° C. with an anti-FLAG-iFluor647 antibody (A01811, Genscript) diluted 1:500 for screening and 1:250 for validation assays, or with anti-human IgG Fc-Alexa Fluor647 antibody (410714, BioLegend) diluted 1:200. […] Cells were fixed with 4% paraformaldehyde before being analyzed. Flp-In™-CHO™ cells used as unstained control and single stain controls were used to determine the cut-off point between background fluorescence and positive populations. […] The data was acquired with an Attune Nxt flow cytometer (Invitrogen) and analyzed by FCS Express 7 Research Edition.

[2] = target: T2, recombinant cynomolgus TfR (90253-C07H, Sino Biological), biotinylated (cynomolgus monkey, UniProt Q5RDH6 89-760 (Pongo abelii entry), biotinylated with EZ-Link NHS-PEG4-Biotinylation Kit); assay: SPR (Biacore T200), biotinylated cynomolgus TfR captured on an SA chip as ligand, VHH as analyte, single cycle kinetics, 1:1 binding model
T2 construct: Bought protein; also called immobilized recombinant cynomolgus TfR
T2 chain: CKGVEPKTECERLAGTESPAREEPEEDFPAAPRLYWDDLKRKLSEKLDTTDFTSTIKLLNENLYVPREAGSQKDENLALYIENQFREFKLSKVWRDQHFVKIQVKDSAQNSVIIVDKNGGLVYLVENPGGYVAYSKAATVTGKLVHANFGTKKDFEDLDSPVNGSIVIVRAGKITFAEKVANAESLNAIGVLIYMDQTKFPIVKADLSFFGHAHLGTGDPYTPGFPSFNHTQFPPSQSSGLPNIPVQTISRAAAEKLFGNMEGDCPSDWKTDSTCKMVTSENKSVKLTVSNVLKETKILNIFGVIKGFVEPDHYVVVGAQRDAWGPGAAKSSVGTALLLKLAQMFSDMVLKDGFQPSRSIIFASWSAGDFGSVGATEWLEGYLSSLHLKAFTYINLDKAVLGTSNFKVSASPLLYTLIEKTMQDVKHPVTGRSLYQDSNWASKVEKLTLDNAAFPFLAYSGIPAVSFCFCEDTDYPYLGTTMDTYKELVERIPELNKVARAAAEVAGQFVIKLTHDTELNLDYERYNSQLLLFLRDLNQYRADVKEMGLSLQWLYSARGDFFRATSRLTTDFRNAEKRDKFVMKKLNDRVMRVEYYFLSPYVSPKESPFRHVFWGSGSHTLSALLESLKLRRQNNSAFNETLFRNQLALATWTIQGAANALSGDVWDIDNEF
Source text: (§1) Phage libraries generated after 4 biweekly immunizations of two different camelids, underwent two rounds of pannings on CHO cell lines overexpressing either cynomolgus TfR in the first round or human TfR in the second round. Output libraries were screened with flow cytometry to find binders to human TfR overexpressing cells (FIG. 1A). […] Binding kinetics to recombinant human and cynomolgus TfR were further characterized with Surface Plasmon Resonance (SPR).
(§2) Surface Plasmon Resonance (SPR) was used to measure the interaction between VHHs and human or cynomolgus TfR receptor. Human TfR (2474-TR, R&D Systems) and cynomolgus TfR (90253-C07H, Sino Biological) were biotinylated with the EZ-Link NHS-PEG4-Biotinylation Kit (ThermoFischer Scientific) according to the manufacturer instructions. The binding experiments were performed at 25° C. on a Biacore T200 instrument (Cytiva, Uppsala, Sweden) in HBS-EP+ buffer (10 mM HEPES, 150 mM NaCl, 3 mM EDTA and 0.05% v/v Surfactant P20). Biotinylated human TfR and cynomolgus TfR were captured on a SA sensor chip (Cytiva) at a density of around 250 RU. Increasing concentrations of VHHs were sequentially injected in one single cycle at a flow rate of 30 μl/min. The dissociation was monitored for 20 min. […] A reference flow was used as a control for non-specific binding and refractive index changes. Several buffer blanks were used for double referencing. Binding affinities (KD) and kinetic rate constants (kₒₙ, koff) were derived after fitting the experimental data to the 1:1 binding model with the Biacore T200 Evaluation Software 3.1 using the single cycle kinetic procedure. Each interaction was repeated a least three times.

[3] = target: T3, recombinant human TfR (2474-TR, R&D Systems), biotinylated (human, UniProt P02786 89-760, biotinylated with EZ-Link NHS-PEG4-Biotinylation Kit); assay: SPR (Biacore T200), biotinylated human TfR captured on SA chip, VHH as analyte, single cycle kinetics
T3 construct: Bought protein; also called immobilized recombinant human TfR; biotinylated human TfR
Source text: as §1
as §2, with “Binding affinities (KD) and kinetic rate constants (kₒₙ, koff) were derived after fitting the experimental data to the 1:1 binding model with the Biacore T200 Evaluation Software 3.1 using the single cycle kinetic procedure. Each interaction was repeated a least three times.” left out

[4] = target: T2, recombinant cynomolgus TfR (90253-C07H, …); assay: SPR (Biacore T200), biotinylated cynomolgus TfR captured on SA chip, VHH as analyte, single cycle kinetics
Source text: as §1
as §2, with “Binding affinities (KD) and kinetic rate constants (kₒₙ, koff) were derived after fitting the experimental data to the 1:1 binding model with the Biacore T200 Evaluation Software 3.1 using the single cycle kinetic procedure. Each interaction was repeated a least three times.” left out

EC50 (read off the curve) [1]: ~50 nM | koff [2]: 0.0118 s⁻¹ | kon [2]: 115000 M⁻¹ s⁻¹ | Kd [3]: 207 nM | Kd [4]: 104 nM
B1: BBB00533 (VHH)
VHH: QVQLQESGGGSVQPGGSLRLSCTASGRTFNYAMGWFRQAPGKNREFVATIDWKDGSSYYLDSVRGRFTIERDDAKNTVYLQMNSLKPEDAAVYTCAVGDGDYCSTYTCAAEVEYDYWGQGTQVTVSS
notes: Lead VHH expressed in E. coli TG1 and purified by IMAC; detected with anti-FLAG antibody in flow cytometry; also called BBB00533 VHH; not shown: C-terminal 3xFlag/6xHis tag from expression vector pBDS119

EC50 (read off the curve) [1]: ~50 nM | koff [2]: 0.00942 s⁻¹ | kon [2]: 149000 M⁻¹ s⁻¹ | Kd [3]: 1180 nM | Kd [4]: 63 nM
B2: BBB00515 (VHH)
VHH: QVQLQESGGGLVQAGGSLRLSCAASGSIFSINAMGWYRQAPGKQRELVAVITSGGSTIYADSVKGRFTISRDNAENTVYLQMNSLKPEDTAVYYCNAHVGLKVPTIQELSLGFGSWGQGTQVTVSS
notes: Lead VHH expressed in E. coli TG1 and purified by IMAC; detected with anti-FLAG antibody in flow cytometry; also called BBB00515 VHH; not shown: C-terminal 3xFlag/6xHis tag from expression vector pBDS119

Reference: patent publication US20260274981A1 (VIB VZW, published 2026)
